Tests used:
[1] = molecular target: T1, peptide-pulsed HLA-A*11:01+ COS-7 target cells (Homo sapiens, UniProt P04439, A114D/D185E/E176A/F33Y/L180Q/S129P/T187R); assay: Cross-reactivity: IFN-γ ELISA after coculture of RAS TCR-T cells with peptide-pulsed HLA-A*11:01+ COS-7 cells; assay type: cell-based; details: peptides of Tables 7-11 at 1 μM, E:T 1:1, 24 h; background threshold 50 pg/mL
T1 construct: Target COS-7 cells were electroporated with mRNA encoding full-length human HLA*11:01; expressed in transfected cells; host or cells: COS-7 cells electroporated with mRNA
Procedure: Next, studies were conducted to determine the cross-reactivity potential of RAS-specific TCRs. Individual TCR peptide motifs were scanned against the human proteome to identify potential cross-reactive sequences. Target COS-7 cells were electroporated with mRNA encoding full-length human HLA*11:01 and incubated at 37 degrees overnight to allow HLA-A*11:01 protein expression. […]. The cells were then pulsed with an individual peptide corresponding to its RAS-specific TCR (see Tables 7-11) at a concentration of 1 μM; finally, wild-type (WT) and mutated RAS peptides were included as functional controls. RAS TCR-T cells, expressing individual RAS TCRs 1-5, were added at an E:T ratio of 1:1 and incubated at 37 degrees for 24 h. Supernatants were harvested from coculture wells to perform an ELISA assay to determine levels of IFN-γ production.

[2] = molecular target: T2, KRAS wild type (10-mer) peptide on HLA-A*11:01 (human); assay: cytokine release
T2 peptide: VVVGAGGVGK

[3] = molecular target: T3, GEM (also listed as SEQ ID NOs 82, 106, 130, 141) peptide on HLA-A*11:01 (human); assay: cytokine release
T3 peptide: AVFGAGGVGK

[4] = molecular target: T4, KRAS G12D (10-mer; the same sequence in NRAS G12D and HRAS G12D) peptide on HLA-A*11:01 (human); assay: multimer staining
T4 peptide: VVVGADGVGK

B1: TCR 2: T cell receptor targeting RAS G12D peptide; α chain SEQ ID NO: 22, β chain SEQ ID NO: 23 (protein, listed as Homo sapiens)
alpha: MTRVSLLWAVVVSTCLESGMAQTVTQSQPEMSVQEAETVTLSCTYDTSENNYYLFWYKQPPSRQMILVIRQEAYKQQNATENRFSVNFQKAAKSFSLKISDSQLGDTAMYFCAFMYPSQGGSEKLVFGKGMKLTVNPNIQNPDPAVYQLRDSKSSDKSVCLFTDFDSQTNVSQSKDSDVYITDKTVLDMRSMDFKSNSAVAWSNKSDFACANAFNNSIIPEDTFFPSPESSCDVKLVEKSFETDTNLNFQNLSVIGFRILLLKVAGFNLLMTLRLWSS
beta: MGPGLLCWVLLCLLGAGSVETGVTQSPTHLIKTRGQQVTLRCSSQSGHNTVSWYQQALGQGPQFIFQYYREEENGRGNFPPRFSGLQFPNYSSELNVNALELDDSALYLCASSSPGFRSYGYTFGSGTRLTVVEDLNKVFPPEVAVFEPSEAEISHTQKATLVCLATGFFPDHVELSWWVNGKEVHSGVSTDPQPLKEQPALNDSRYCLSSRLRVSATFWQNPRNHFRCQVQFYGLSENDEWTQDRAKPVTQIVSAEAWGRADCGFTSVSYQQGVLSATILYEILLGKATLYAVLVSALVLMAMVKRKDF
modifications: Description of sequence: Full alpha-chain; Description of sequence: Full beta-chain
reactivity (IFN-γ) to alternative human peptide sequences possessing the recognition motif [1]: did not exhibit reactivity

B2: TCR 4: T cell receptor targeting RAS G12D peptide; α chain SEQ ID NO: 41, β chain SEQ ID NO: 42 (protein, listed as Homo sapiens)
alpha: MMKSLRVLLVILWLQLSWVWSQQKEVEQDPGPLSVPEGAIVSLNCTYSNSAFQYFMWYRQYSRKGPELLMYTYSSGNKEDGRFTAQVDKSSKYISLFIRDSQPSDSATYLCAMGALNSGAGSYQLTFGKGTKLSVIPNIQNPDPAVYQLRDSKSSDKSVCLFTDFDSQTNVSQSKDSDVYITDKTVLDMRSMDFKSNSAVAWSNKSDFACANAFNNSIIPEDTFFPSPESSCDVKLVEKSFETDTNLNFQNLSVIGFRILLLKVAGFNLLMTLRLWSS
beta: MGSRLLCWVLLCLLGAGPVKAGVTQTPRYLIKTRGQQVTLSCSPISGHRSVSWYQQTPGQGLQFLFEYFSETQRNKGNFPGRFSGRQFSNSRSEMNVSTLELGDSALYLCASSLSSGTGTEAFFGQGTRLTVVEDLNKVFPPEVAVFEPSEAEISHTQKATLVCLATGFFPDHVELSWWVNGKEVHSGVSTDPQPLKEQPALNDSRYCLSSRLRVSATFWQNPRNHFRCQVQFYGLSENDEWTQDRAKPVTQIVSAEAWGRADCGFTSVSYQQGVLSATILYEILLGKATLYAVLVSALVLMAMVKRKDF
modifications: Description of sequence: Full alpha-chain; Description of sequence: Full beta-chain
reactivity (IFN-γ) to alternative human peptide sequences possessing the recognition motif [1]: did not exhibit reactivity

B3: TCR 1: T cell receptor targeting RAS G12D peptide; α chain SEQ ID NO: 12, β chain SEQ ID NO: 13 (protein, listed as Homo sapiens)
alpha: MNYSPGLVSLILLLLGRTRGDSVTQMEGPVTLSEEAFLTINCTYTATGYPSLFWYVQYPGEGLQLLLKATKADDKGSNKGFEATYRKETTSFHLEKGSVQVSDSAVYFCALSDRVGGARLMFGDGTQLVVKPNIQNPDPAVYQLRDSKSSDKSVCLFTDFDSQTNVSQSKDSDVYITDKTVLDMRSMDFKSNSAVAWSNKSDFACANAFNNSIIPEDTFFPSPESSCDVKLVEKSFETDTNLNFQNLSVIGFRILLLKVAGFNLLMTLRLWSS
beta: MTIRLLCYMGFYFLGAGLMEADIYQTPRYLVIGTGKKITLECSQTMGHDKMYWYQQDPGMELHLIHYSYGVNSTEKGDLSSESTVSRIRTEHFPLTLESARPSHTSQYLCASSEGLYNEQFFGPGTRLTVLEDLKNVFPPEVAVFEPSEAEISHTQKATLVCLATGFYPDHVELSWWVNGKEVHSGVSTDPQPLKEQPALNDSRYCLSSRLRVSATFWQNPRNHFRCQVQFYGLSENDEWTQDRAKPVTQIVSAEAWGRADCGFTSESYQQGVLSATILYEILLGKATLYAVLVSALVLMAMVKRKDSRG
modifications: Description of sequence: Full alpha-chain; Description of sequence: Full beta-chain
reactivity (IFN-γ) to alternative human peptide sequences possessing the recognition motif [1]: did not exhibit reactivity

B4: TCR 5: T cell receptor targeting RAS G12D peptide; α chain SEQ ID NO: 50, β chain SEQ ID NO: 51 (protein, listed as Homo sapiens)
alpha: MKTFAGFSFLFLWLQLDCMSRGEDVEQSLFLSVREGDSSVINCTYTDSSSTYLYWYKQEPGAGLQLLTYIFSNMDMKQDQRLTVLLNKKDKHLSLRIADTQTGDSAIYFCAERDAGNNRKLIWGLGTSLAVNPNIQNPDPAVYQLRDSKSSDKSVCLFTDFDSQTNVSQSKDSDVYITDKTVLDMRSMDFKSNSAVAWSNKSDFACANAFNNSIIPEDTFFPSPESSCDVKLVEKSFETDTNLNFQNLSVIGFRILLLKVAGFNLLMTLRLWSS
beta: MGTRLLCWVVLGFLGTDHTGAGVSQSPRYKVAKRGQDVALRCDPISGHVSLFWYQQALGQGPEFLTYFQNEAQLDKSGLPSDRFFAERPEGSVSTLKIQRTQQEDSAVYLCASSLEGGDTQYFGPGTRLTVLEDLKNVFPPEVAVFEPSEAEISHTQKATLVCLATGFYPDHVELSWWVNGKEVHSGVSTDPQPLKEQPALNDSRYCLSSRLRVSATFWQNPRNHFRCQVQFYGLSENDEWTQDRAKPVTQIVSAEAWGRADCGFTSESYQQGVLSATILYEILLGKATLYAVLVSALVLMAMVKRKDSRG
modifications: Description of sequence: Full alpha-chain; Description of sequence: Full beta-chain
reactivity (IFN-γ) to alternative human peptide sequences possessing the recognition motif [1]: did not exhibit reactivity

B5: TCR 3: T cell receptor targeting RAS G12D peptide; α chain SEQ ID NO: 31, β chain SEQ ID NO: 32 (protein, listed as Homo sapiens)
alpha: MACPGFLWALVISTCLEFSMAQTVTQSQPEMSVQEAETVTLSCTYDTSESDYYLFWYKQPPSRQMILVIRQEAYKQQNATENRFSVNFQKAAKSFSLKISDSQLGDAAMYFCAYRSDGGATNKLIFGTGTLLAVQPNIQNPDPAVYQLRDSKSSDKSVCLFTDFDSQTNVSQSKDSDVYITDKTVLDMRSMDFKSNSAVAWSNKSDFACANAFNNSIIPEDTFFPSPESSCDVKLVEKSFETDTNLNFQNLSVIGFRILLLKVAGFNLLMTLRLWSS
beta: MGPQLLGYVVLCLLGAGPLEAQVTQNPRYLITVTGKKLTVTCSQNMNHEYMSWYRQDPGLGLRQIYYSMNVEVTDKGDVPEGYKVSRKEKRNFPLILESPSPNQTSLYFCASSLGAGGYNSPLHFGNGTRLTVTEDLNKVFPPEVAVFEPSEAEISHTQKATLVCLATGFFPDHVELSWWVNGKEVHSGVSTDPQPLKEQPALNDSRYCLSSRLRVSATFWQNPRNHFRCQVQFYGLSENDEWTQDRAKPVTQIVSAEAWGRADCGFTSVSYQQGVLSATILYEILLGKATLYAVLVSALVLMAMVKRKDF
modifications: Description of sequence: Full alpha-chain; Description of sequence: Full beta-chain
reactivity (IFN-γ) to alternative human peptide sequences possessing the recognition motif [1]: low level reactivity to a single alternative peptide

B6: TCR 1 (TCR, V domains shown)
Valpha: GDSVTQMEGPVTLSEEAFLTINCTYTATGYPSLFWYVQYPGEGLQLLLKATKADDKGSNKGFEATYRKETTSFHLEKGSVQVSDSAVYFCALSDRVGGARLMFGDGTQLVVKP
Vbeta: EADIYQTPRYLVIGTGKKITLECSQTMGHDKMYWYQQDPGMELHLIHYSYGVNSTEKGDLSSESTVSRIRTEHFPLTLESARPSHTSQYLCASSEGLYNEQFFGPGTRLTVL
binding result [2]: no recognition
binding result [3]: no recognition
binding result [4]: recognises
